The data set concerns the molecule itself. Briefly: EPR spectroscopy (spin-spin interaction of singly labeled protein, with spin dilution); bound to preformed lipid tubules (10% cholesterol/40% phosphatidylcholine/40% galactocerebrosides/10% PIP2); 10 uM protein with 60 ug tubes in 100 ul, 10 min at RT, pelleted at 152,800g; 20 mM Hepes pH 7.4, 150 mM NaCl; fully labeled compared with 33% labeled and 67% unlabeled protein.

B1: rat epsin 1 ENTH domain (1-164), spin-labeled at residue 14 (domain or fragment)
chain: GSPGIHMSTSSLRRQMKNICHNYSEAEIKVREATSNDPWGPSSSLMSEIADLTYNVVAFSEIMSMIWKRLNDHGKNWRHVYKAMTLMEYLIKTGSERVSQQSKENMYAVQTLKDFQYVDRDGKDQGVNVREKAKQLVALLRDEDRLREERAHALKTKEKLAQTATASSAA
modifications: MTSL spin label (R1 side chain) on the cysteine introduced at position 14
notes: cysteine-less background (C96S) with a single cysteine at position 14; same construct as the crystallography study (PDB 1H0A); also called V14; source: E. coli BL21 (DE3), purified (glutathione-Sepharose, thrombin, ion exchange, gel filtration), labeled with MTSL; not shown: GST, N-terminal, cleaved
As for B1, the binding result was “binds”.

Values taken from PMC3682188, “Membrane Binding and Self-Association of the Epsin N-Terminal Homology Domain” (Journal of Molecular Biology, 2012).
